In patent US20100129346A1 (G2 INFLAMMATION, published 2010):
Numbering of substitutions follows the chain as printed. No end group written: not given here. *: point of attachment. Biotin = O=C1N[C@H]2[C@H](CS[C@H]2CCCCC(=O)*)N1

T1: Biotinylated Human C5aR Peptide (2nd loop), peptide 23 (human, N-terminal biotin)
T1 construct: immobilised on a streptavidin sensor chip for BIACore; also called Biotinylated-Peptide 23; Biot-peptide
T1 peptide: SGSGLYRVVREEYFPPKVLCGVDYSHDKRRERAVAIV

T2: human C5aR (human, UniProt P21730 1-350)
T2 construct: On human neutrophils, on hC5aR-transfected L1.2 cells or on neutrophils of hC5aR knock-in mice; also called hC5aR; C5a receptor
T2 chain: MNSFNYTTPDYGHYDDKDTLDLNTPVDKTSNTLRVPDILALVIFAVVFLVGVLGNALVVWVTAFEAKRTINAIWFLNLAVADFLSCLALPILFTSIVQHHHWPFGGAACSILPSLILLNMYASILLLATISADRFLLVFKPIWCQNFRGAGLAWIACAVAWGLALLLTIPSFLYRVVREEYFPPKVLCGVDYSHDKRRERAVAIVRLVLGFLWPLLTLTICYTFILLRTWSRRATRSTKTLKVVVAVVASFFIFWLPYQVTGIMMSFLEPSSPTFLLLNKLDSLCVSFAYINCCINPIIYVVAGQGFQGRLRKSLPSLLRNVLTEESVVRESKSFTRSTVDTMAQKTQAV

T3: 12-mer peptide VREEYFPPKVLC of the human C5aR second extracellular loop (human)
T3 construct: Parent peptide of the alanine scan; each mutant has one residue replaced by alanine
T3 peptide: Biotin-GSGSVREEYFPPKVLC

B1: MAb 8G7 (antibody, V domains shown)
VH: DIQLQESGPGLVKPSQSLSLTCSVTGYSITSGHYWNWIRQLPGNKMEWMGHISNDGSNRYNPSLKNRISITRDTSKNQFFLKLNSVTTEDTATYYCALFYFAYASFAYWGQGTLVTVSA
VL: DVVMTQTPLSLPVSLGDQASISCRSSQSLLHSNGNTYLHWYLQKPGQSPKLLIYKVSTRFSGVPDRFSGSGSGADFTLQISRVEAEDLGVYLCSQSTHVPPTFGAGTKLVLT
notes: Mouse monoclonal antibody from a hybridoma (ECACC 06081803); also called 8G7-M6
B2: MAb 7F3 (antibody, V domains shown)
VH: QVQLQQSGPELVKPGASVKISCKASGYAFSNSWMNWVKQRPGKGLEWIGRIYPGDGDTKYNGKFKGKATLTADKSSSTAYMQLSSLTSEDSAVYFCARFLLISTVTAVDYWGQGTTLTVSS
VL: DVVMTQSPLSLPVSLGNQASISCRSSQSLVHSNGNTYLHWYLQKPGQSPKLLIYKVSNRFSGVPDRFSGSGSGTDFSLKISRVEAEDLGVYFCSQSTLVPLTFGAGTKLELK
B3: MAb 7H3 (antibody, V domains shown)
VH: EVKLEESGGGLVQPGGSMKLSCVASGFTFSDAWMDWVRQSPEKGLEWVAGIRNRANNHATYYVASVKGRFTVSRDDSKSSVYLQMNSLRAEDAGIYYCTRGDGYFFDYWGQGTTLTVSS
VL: DVVLTQTPLSLSVSLGDQASISCRSGQSLVHSNGNTYLHWYLQKPGQSSKLLIYKVSNRLSGVPDRFSGSGSGTDFTLKISRVEAEDLGVYFCSQTTHVPPTFGGGTKLEIK
notes: Mouse monoclonal antibody from a hybridoma (ECACC 06081802); also called 7H3-N9
B4: MAb 3C5 (antibody, V domains shown)
VH: DVQLQESGPGLVKPSQSLSLTCSVTGYSITSGNYWNWIRQFPGKKLEWMGHISYDGNNKYNPSLKNRISITRDTSKNQFFLRLNSVTAEDTAAYYCALFYFDYASFTYWGQGTLVTVSA
VL: B2 VL with S7T, N17D, Q43R, S77T, L98H, L101P

Columns and labels:
[1] = target: T1, Biotinylated Human C5aR Peptide (2nd …); assay: SPR (BIACore 2000), biotinylated peptide 23 on SA chip, mAb as analyte
human C5aR [2] = target: T2, human C5aR; assay: competitive 125I-C5a ligand binding to hC5aR on human neutrophils; blocked ligand human C5a; 3 experiments; the table's column has no unit, nM is that of the axis Log Conc (nM)
Description: (§1) Human neutrophils were washed and re-suspended in binding buffer (50 mM HEPES, pH7.5, 1 mM CaCl2, 5 mM MgCl2, and 0.5% BSA) at 1×10⁷/ml. For each binding reaction (in a final volume of 120 μl), 40 μl cell suspension (4×10⁵ cells) with an appropriate amount of anti-hC5aR mAb, isotype matched control mAb or unlabelled human C5a (SIGMA) was incubated at room temperature for 15 min. ¹²⁵I-labelled human C5a (Perkin Elmer) was added at a final concentration of 0.4 nM and the reactions were incubated at room temperature for 60 min. Cells were then collected and washed 3 times with binding buffer containing 150 mM NaCl. Cells were then transferred to Opti plates (Perkin Elmer) with MicroScint 20 scintillation fluid and radioactivity counted on TopCount (Packard). Each sample was assayed in triplicate.
(§2) Further competitive ligand binding studies were conducted to measure ¹²⁵I-C5a displacement from hC5aR on hC5aR-transfected L1.2 cells with 7F3 or 3C5.

[3] = target: T3, 12-mer peptide VREEYFPPKVLC of the …; assay: peptide ELISA, biotinylated peptide on streptavidin-coated plates [b]
Description: Streptavidin-coated microtiter plates (NUNC) were coated with 10 μg/ml of peptide/well in a volume of 200 μl, and incubated at 4° C. overnight. Plates were washed three times with ELISA wash buffer (0.05% Tween 20 in PBS). MAbs were added at 2.5 μg/ml, and plates were incubated for 3 hrs at room temperature. HRP-conjugated rabbit anti-mouse IgG antibody diluted 1:1000 in ELISA wash buffer was used for detection. Plates were developed using TMB (3,3′,5,5′ tetramethyl benzidine, SIGMA) and read at […].

human C5aR [4] = target: T2, human C5aR; assay: displacement of 125I-C5a from hC5aR on hC5aR-transfected L1.2 cells
[5] = target: T1, Biotinylated Human C5aR Peptide (2nd …); assay: SPR (BIACore), biotinylated peptide 23 on SA chip; experiment 1
human C5aR [6] = target: T2, human C5aR; assay: competition with 125I-C5a (0.4 nM) for binding to human neutrophils
[7] = target: T1, Biotinylated Human C5aR Peptide (2nd …); assay: SPR (BIACore), biotinylated peptide 23 on SA chip; experiment 2 (100 nM-0.78 nM, 20 min dissociation)
Description: (§3) Additional BIACore analyses were performed to compare binding affinities of antibodies 7F3 and 3C5 to peptide 23 under varying conditions. The conditions for these additional BIAcore experiments were as described above under “Experimental Details” with the following modifications: [0295] Experiment 2: Antibody concentrations included in kinetic analysis—100 nM-0.78 nM; 20 min dissociation. [0296] Experiment 3: Antibody concentrations included in kinetic analysis—7F3: 25 nM-0.78 nM,; 3C5: 6.25nM-0.78nM; 5 min dissociation. [0297] Experiment 4: Antibody concentrations included in kinetic analysis—7F3: 25 nM-1.56 nM,; 3C5: 6.25 nM-0.4 nM; 1 min association, 3 min dissociation.

[8] = target: T1, Biotinylated Human C5aR Peptide (2nd …); assay: SPR (BIACore), biotinylated peptide 23 on SA chip; experiment 3 (25 nM-0.78 nM, 5 min dissociation)
[9] = target: T1, Biotinylated Human C5aR Peptide (2nd …); assay: SPR (BIACore), biotinylated peptide 23 on SA chip; experiment 4 (25 nM-1.56 nM, 1 min association, 3 min dissociation)
human C5aR [10] = target: T2, human C5aR; assay: competition with 125I-C5a (0.4 nM) for binding to human neutrophils; human neutrophils
Description: as §1, §2

[11] = target: T1, Biotinylated Human C5aR Peptide (2nd …); assay: SPR (BIACore), biotinylated peptide 23 on SA chip; experiment 4 (6.25 nM-0.4 nM, 1 min association, 3 min dissociation)
Description: as §3

[12] = target: T1, Biotinylated Human C5aR Peptide (2nd …); assay: SPR (BIACore), biotinylated peptide 23 on SA chip; reference 7F3
[13] = target: T1, Biotinylated Human C5aR Peptide (2nd …); assay: SPR (BIACore), biotinylated peptide 23 on SA chip; experiment 3 (6.25 nM-0.78 nM, 5 min dissociation)
Description: as §3

human C5aR [14] = target: T2, human C5aR; assay: displacement of 125I-C5a from hC5aR on hC5aR-transfected L1.2 cells; hC5aR-transfected L1.2 cells

Row | Binder | Ka [1] [M⁻¹] | Kd [1] [nM] | koff [1] [s⁻¹] | kon [1] [M⁻¹ s⁻¹] | IC50 (human C5aR [2]) [nM] | binding result [3] | Ka [5] [M⁻¹] | Kd [5] [nM] | koff [5] [s⁻¹] | kon [5] [M⁻¹ s⁻¹] | Ka [7] [M⁻¹] | Kd [7] [nM] | koff [7] [s⁻¹] | kon [7] [M⁻¹ s⁻¹] | further results
1 | B1 | 6.3e+08 | 1.6 | 0.0059 | 3.7e+06 | 0.214 | binds |  |  |  |  |  |  |  |  | 
2 | B2 | 1.4e+09 | 0.7 | 0.00045 | 640000 |  |  | 5.4e+08 | 1.8 | 0.00038 | 210000 | 8.1e+08 | 1.2 | 0.00035 | 290000 | EC50 (human C5aR [4]): 0.48 nM; IC50 (human C5aR [6]): 0.503 nM; Ka [8]: 7.19e+08 M⁻¹; Kd [8]: 1.39 nM; koff [8]: 0.000462 s⁻¹; kon [8]: 332000 M⁻¹ s⁻¹; Ka [9]: 4.79e+08 M⁻¹; Kd [9]: 2.09 nM; koff [9]: 0.000598 s⁻¹; kon [9]: 286000 M⁻¹ s⁻¹
3 | B3 | 5.97e+07 | 16.7 | 0.00995 | 595000 | 0.275 | binds |  |  |  |  |  |  |  |  | 
4 | B4 | 2.1e+09 | 0.48 | 0.0016 | 3.3e+06 |  |  | 1.3e+09 | 0.76 | 0.00052 | 680000 | 2.2e+09 | 0.45 | 0.0007 | 1.5e+06 | IC50 (human C5aR [10]): 0.171 nM; Ka [11]: 7.16e+08 M⁻¹; Kd [11]: 1.4 nM; koff [11]: 0.00144 s⁻¹; kon [11]: 1.03e+06 M⁻¹ s⁻¹; fold improved affinity over 7F3 [12]: ~1.5 fold; Ka [13]: 9.6e+08 M⁻¹; Kd [13]: 1.04 nM; koff [13]: 0.00111 s⁻¹; kon [13]: 1.06e+06 M⁻¹ s⁻¹; EC50 (human C5aR [14]): 0.021 nM
